Experimental data reported in patent US7462599.

Assays:
[1] = target: T1, H-Gln-Gly-OH
T1 chain: QG

[2] = target: T2, H-Gln-Phe-Ala-NH2
T2 chain: QFA

[3] = target: T3, Gln^3-Aβ(3-11)a
T3 chain: QFRHDSGYE

[4] = target: T4, H-Gln-Gln-OH
T4 chain: QQ

[5] = target: T5, H-Gln-Ala-Ala-Ala-Ala-NH2
T5 chain: QAAAA

[6] = target: T6, H-Gln-Arg-Gly-Ile-NH2
T6 chain: QRGI

[7] = target: T7, H-Gln-Glu-OH
T7 chain: QE

[8] = target: T8, H-Gln-Lys-Arg-Leu-NH2
T8 chain: QKRL

[9] = target: T9, H-Gln-Gln-Tyr-Phe-NH2
T9 chain: QQYF

[10] = target: T10, H-βhomoGln-Phe-Lys-Arg-Leu-Ala-NH2
T10 chain: QFKRLA

[11] = target: T11, H-Gln-His-Tyr-Phe-NH2
T11 chain: QHYF

[12] = target: T12, H-Gln-Ala-OH
T12 chain: QA

[13] = target: T13, H-Gln-Ala-NH2
T13 chain: QA

[14] = target: T14, H-Gln-Ala-Ala-Ser-Ala-Ala-NH2
T14 chain: QAASAA

[15] = target: T15, H-Gln-Glu-Tyr-Phe-NH2
T15 chain: QEYF

[16] = target: T16, [Gln^5]-substance P(5-11)
T16 chain: QQFFGLM

[17] = target: T17, H-Gln-Pro-Tyr-Phe-NH2
T17 chain: QPYF

[18] = target: T18, H-Gln-Ser-Tyr-Phe-NH2
T18 chain: QSYF

[19] = target: T19, H-Gln-Glu-Asp-Leu-NH2
T19 chain: QEDL

[20] = target: T20, H-Gln-Tyr-OH
T20 chain: QY

[21] = target: T21, H-Gln-Glu-Tyr-NH2
T21 chain: QEY

[22] = target: T22, H-Gln-cyclo(Nε-Lys-Arg-Pro-Ala-Gly-Phe)
T22 chain: QKRPAGF

[23] = target: T23, H-Gln-Tyr-Ala-OH
T23 chain: QYA

[24] = target: T24, H-Gln-Asn-Gly-Ile-NH2
T24 chain: QNGI

[25] = target: T25, H-Gln-Val-OH
T25 chain: QV

[26] = target: T26, H-Gln-Glu-Ala-Phe-NH2
T26 chain: QEAF

[27] = target: T27, H-Gln-Glu-Tyr-Ala-NH2
T27 chain: QEYA

[28] = target: T28, H-Gln-Trp-Ala-NH2
T28 chain: QWA

[29] = target: T29, H-Gln-Arg-Tyr-Phe-NH2
T29 chain: QRYF

[30] = target: T30, [Gln^1]-GnRH
T30 chain: QHWSYGLRPG

[31] = target: T31, H-Gln-Glu-Ala-Ala-NH2
T31 chain: QEAA

[32] = target: T32, H-Gln-Gly-Pro-OH
T32 chain: QGP

B1: recombinant human glutaminyl cyclase (QC, EC 2.3.2.5) (protein)
chain: VSPSASAWPEEKNYHQPAILNSSALRQIAEGTSISEMWQNDLQPLLIERYPGSPGSYAARQHIMQRIQRLQADWVLEIDTFLSQTPYGYRSFSNIISTLNPTAKRHLVLACHYDSKYFSHWNNRVFVGATDSAVPCAMMLELARALDKKLLSLKTVSDSKPDLSLQLIFFDGEEAFLHWSPQDSLYGSRHLAAKMASTPHPPGARGTSQLHGMDLLVLLDLIGAPNPTFPNFFPNSARWFERLQAIEHELHELGLLKDHSLEGRYFQNYSYGGVIQDDHIPFLRRGVPVLHLIPSPFPEVWHTMDDNEENLDESTIDNLNKILQVFVLEYLHL
KM (substrate conversion by QC) [1]: 247 µM
KM (substrate conversion by QC) [2]: 69 µM
KM (buffer containing 1% DMSO) [3]: 155 µM
KM (substrate conversion by QC) [4]: 148 µM
KM (substrate conversion by QC) [5]: 65 µM
KM (0.05 M Tris-HCl, pH 8.0) [6]: 0.166 mM
KM (0.05 M Tris-HCl, pH 8.0, 0.5 M KCl) [6]: 0.091 mM
KM (substrate conversion by QC) [6]: 143 µM
KM (0.05 M Tris-HCl, pH 8.0) [7]: 0.373 mM
KM (0.05 M Tris-HCl, pH 8.0, 0.5 M KCl) [7]: 0.607 mM
KM (substrate conversion by QC) [7]: 359 µM
KM (0.05 M Tris-HCl, pH 8.0) [8]: 0.051 mM
KM (0.05 M Tris-HCl, pH 8.0, 0.5 M KCl) [8]: 0.034 mM
KM (substrate conversion by QC) [8]: 54 µM
KM (substrate conversion by QC) [9]: 41 µM
KM (substrate conversion by QC) [10]: KM=2.5±0.2 mM
KM (substrate conversion by QC) [11]: 68 µM
KM (0.05 M Tris-HCl, pH 8.0) [12]: 0.269 mM
KM (0.05 M Tris-HCl, pH 8.0, 0.5 M KCl) [12]: 0.357 mM
KM (substrate conversion by QC) [12]: 232 µM
KM (substrate conversion by QC) [13]: 155 µM
KM (substrate conversion by QC) [14]: 79 µM
KM (substrate conversion by QC) [15]: 47 µM
substrate conversion, determined qualitatively by MALDI-TOF [16]: *
KM (substrate conversion by QC) [17]: 1890 µM
KM (substrate conversion by QC) [18]: 55 µM
KM (0.05 M Tris-HCl, pH 8.0) [19]: 0.06 mM
KM (0.05 M Tris-HCl, pH 8.0, 0.5 M KCl) [19]: 0.061 mM
KM (substrate conversion by QC) [19]: 55 µM
KM (substrate conversion by QC) [20]: 211 µM
KM (substrate conversion by QC) [21]: 79 µM
KM (substrate conversion by QC) [22]: KM-values of 240±14 µM and 133±5 µM for human and papaya QC, respectively
KM (substrate conversion by QC) [23]: 101 µM
KM (substrate conversion by QC) [24]: 172 µM
KM (substrate conversion by QC) [25]: 196 µM
KM (substrate conversion by QC) [26]: 39 µM
KM (substrate conversion by QC) [27]: 69 µM
KM (0.05 M Tris-HCl, pH 8.0) [28]: 0.054 mM
KM (0.05 M Tris-HCl, pH 8.0, 0.5 M KCl) [28]: 0.056 mM
KM (substrate conversion by QC) [28]: 50 µM
KM (substrate conversion by QC) [29]: 55 µM
KM (substrate conversion by QC) [30]: 53 µM
KM (substrate conversion by QC) [31]: 77 µM
KM (substrate conversion by QC) [32]: 130 µM
